The target of data set [1] is T1, Rv0078 R48M (Mycobacterium tuberculosis, UniProt O53623 1-201, R48M).
T1 sequence: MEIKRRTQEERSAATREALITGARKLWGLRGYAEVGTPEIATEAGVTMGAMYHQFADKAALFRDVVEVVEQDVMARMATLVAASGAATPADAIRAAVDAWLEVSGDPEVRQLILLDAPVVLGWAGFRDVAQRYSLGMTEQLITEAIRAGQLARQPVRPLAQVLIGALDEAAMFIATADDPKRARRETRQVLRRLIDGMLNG
The experiment in a line: EMSA; […], room temperature 30 min; […], buffer not stated. Conditions: protein: recombinant; chain copies: 2; label: 5'-IRDye700 on S21. On the technique in general: Mobility shift assays separate free from complexed probe on a gel.

Data set [2] concerns the target T2, Rv0078 (Mycobacterium tuberculosis, UniProt O53623 1-201).
T2 sequence: T1 sequence with M48R
The description is as above. As to conditions: protein: recombinant; tags: C-terminal His6; chain copies: 4; label: IRDye700.

Consider two molecules from article PMC6016246, “Cytokinin Signaling in Mycobacterium tuberculosis” (mBio, 2018).

Residue numbers refer to the chain shown, from its start.

B1: +19/-14 (WT) (dsDNA)
DNA 1: GTACATTTACAAGCAGACTGCCGGTAACTTACCCCAGACCAGGGCAC
DNA 2: GTGCCCTGGTCTGG
DNA 3: GGTAAGTTACCGGCAGTCTGCTTGTAAATGTAC
Turning to B1, the binding result in data set [1] is “no binding”.

B2: probe S1 (central dimer G-to-A) (dsDNA)
DNA 1: GTACATTTACAAGTAGACTACCGGTAACTTACC
DNA 2: B1 DNA 3 with C14T, G20A
In the case of B2, the binding result in data set [2] is “no binding”.
